How the values were obtained:
[1] = target: integrin α3β1 on HOK-16B cells (human (HOK-16B human oral keratinocytes)) (UniProt P26006); assay: cell-based or functional assay
[2] = target: integrin α3β1 on HOK-16B cells (human (HOK-16B human oral keratinocytes), UniProt P26006 33-1051; P05556 21-798); assay: cell-based or functional assay
integrin α3β1 on HOK-16B cells, sequence (P26006 33-1051, chain 1 of 2): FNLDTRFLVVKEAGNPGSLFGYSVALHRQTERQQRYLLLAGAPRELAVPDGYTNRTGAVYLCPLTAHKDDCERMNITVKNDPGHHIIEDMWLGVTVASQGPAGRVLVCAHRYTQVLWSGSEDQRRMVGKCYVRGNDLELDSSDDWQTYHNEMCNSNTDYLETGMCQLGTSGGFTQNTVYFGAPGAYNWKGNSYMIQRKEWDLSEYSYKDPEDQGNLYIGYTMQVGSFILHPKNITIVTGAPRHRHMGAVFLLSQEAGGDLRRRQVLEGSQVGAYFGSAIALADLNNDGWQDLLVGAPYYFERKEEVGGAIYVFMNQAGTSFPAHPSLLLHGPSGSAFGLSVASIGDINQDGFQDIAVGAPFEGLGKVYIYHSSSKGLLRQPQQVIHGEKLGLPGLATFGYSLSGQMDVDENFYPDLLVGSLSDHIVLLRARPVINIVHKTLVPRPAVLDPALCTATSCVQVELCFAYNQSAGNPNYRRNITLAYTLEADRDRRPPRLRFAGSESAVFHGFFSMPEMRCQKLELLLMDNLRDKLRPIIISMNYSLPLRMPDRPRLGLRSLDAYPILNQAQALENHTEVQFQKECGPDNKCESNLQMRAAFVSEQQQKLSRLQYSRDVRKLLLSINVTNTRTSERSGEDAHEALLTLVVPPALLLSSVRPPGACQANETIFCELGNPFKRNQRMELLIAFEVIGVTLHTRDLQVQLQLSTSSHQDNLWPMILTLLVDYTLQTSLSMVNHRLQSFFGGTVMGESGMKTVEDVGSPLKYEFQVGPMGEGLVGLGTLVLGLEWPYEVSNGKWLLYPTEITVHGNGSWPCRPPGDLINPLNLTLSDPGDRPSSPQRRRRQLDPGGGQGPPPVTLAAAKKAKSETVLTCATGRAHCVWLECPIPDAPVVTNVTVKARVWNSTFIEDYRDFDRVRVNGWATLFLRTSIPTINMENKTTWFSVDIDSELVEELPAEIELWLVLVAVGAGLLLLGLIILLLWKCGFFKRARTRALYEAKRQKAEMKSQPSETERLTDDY
integrin α3β1 on HOK-16B cells, sequence (P05556 21-798, chain 2 of 2): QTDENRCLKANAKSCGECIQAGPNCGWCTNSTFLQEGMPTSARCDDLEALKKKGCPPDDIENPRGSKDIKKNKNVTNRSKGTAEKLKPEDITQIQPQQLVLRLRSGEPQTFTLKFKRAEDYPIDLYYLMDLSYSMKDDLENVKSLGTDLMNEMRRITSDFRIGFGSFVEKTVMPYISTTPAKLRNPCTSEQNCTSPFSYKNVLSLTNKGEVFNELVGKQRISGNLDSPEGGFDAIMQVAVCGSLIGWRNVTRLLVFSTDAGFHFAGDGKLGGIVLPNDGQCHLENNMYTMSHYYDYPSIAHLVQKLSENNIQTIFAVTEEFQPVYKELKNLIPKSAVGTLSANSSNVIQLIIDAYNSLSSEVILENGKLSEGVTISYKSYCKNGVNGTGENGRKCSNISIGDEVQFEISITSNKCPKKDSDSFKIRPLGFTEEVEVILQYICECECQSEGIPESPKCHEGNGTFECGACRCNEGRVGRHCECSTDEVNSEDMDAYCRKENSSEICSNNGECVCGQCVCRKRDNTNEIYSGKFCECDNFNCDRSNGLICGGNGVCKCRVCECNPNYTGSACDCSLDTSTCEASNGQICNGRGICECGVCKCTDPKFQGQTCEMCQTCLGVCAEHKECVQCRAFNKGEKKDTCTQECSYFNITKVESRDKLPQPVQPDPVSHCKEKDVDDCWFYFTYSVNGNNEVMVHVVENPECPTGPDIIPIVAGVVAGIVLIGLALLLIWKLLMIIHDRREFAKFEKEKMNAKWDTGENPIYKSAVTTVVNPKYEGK

integrin α3β1 on HOK-16B cells (human (HOK-16B human oral keratinocytes)), sequence (P26006 33-1051, chain 1 of 2): as the sequence (P26006 33-1051, chain 1 of 2) above
integrin α3β1 on HOK-16B cells (human (HOK-16B human oral keratinocytes)), sequence (P05556 21-798, chain 2 of 2, further chain): as the sequence (P05556 21-798, chain 2 of 2) above

FAK phosphorylation at Tyr-397 in HOK-16B cells, fold induction compared with the untreated control [1] | FAK phosphorylation at Tyr-397 in HOK-16B cells, fold induction compared with the untreated control [2] | Molecule
16.2 fold | – | human placental laminin (LN) (ligand)
– | 8.2 fold | recombinant LG3 protein of the human laminin-5 α3 chain (rLG3-His6) (ligand) MRGSHHHHHHGMASMTGGQQMGRDLTDDDDKDPSSRSAAGTMEFDFVRLNDTVGVTKKCSEDWKLVRSASFSRGGQLSFTDLGLPPTDHLQASFGFQTFQPSGILLDHQTWTRNLQVTLEDGYIELSTSDSGGPIFKSPQTYMDGLLHYVSVISDNSGLRLLIDDQLLRNSKRLKHISSSRQSLRLGGSNFEGCISNVFVQRLSLSPEVLDLTSNSLKRDVSLGGCSLNKPPFLMLLKGSTRFNKTKTFRINQLLQDTPVASPRSVKVWQDACSPLPKTQANHESLVNSLLDPAANKARKVAELAAATAEQ

From patent US20080096792A1 (SEOUL NATIONAL UNIVERSITY INDUSTRY FOUNDATION, published 2008)
